The record followed here is patent US20190240295A1.

A word on the Kd: it is the free concentration of one partner at which half of the binding sites on the other are occupied at equilibrium, for simple one-to-one binding. Lower therefore signals a tighter complex.

The target of assay [1] is LRP1 (alpha2-macroglobulin receptor/CD91) receptor (BioMac) (UniProt Q07954). Description: SPR (Biacore), LRP1 immobilized on CM4 chip; mean KD of lots K-N.
Assay [2] addresses Plasma-derived VWF (pdVWF, Diagnostica Stago) (UniProt P04275). Briefly: SPR (Biacore), pdVWF immobilized on CM5 chip; mean KD of lots K-N. A general note: SPR reads the build-up and loss of mass on a sensor chip optically.
Assay [3] addresses LRP1 (alpha2-macroglobulin receptor/CD91) receptor (BioMac) (UniProt Q07954). Briefly: SPR (Biacore), LRP1 immobilized on CM4 chip; mean KD of lots A-C.
For assay [4] the target is unchanged. Briefly: SPR (Biacore), LRP1 immobilized on CM4 chip; mean KD of lots D-F.
Assay [5] deals with Plasma-derived VWF (pdVWF, Diagnostica Stago) (UniProt P04275). Description: SPR (Biacore), pdVWF immobilized on CM5 chip; mean KD of lots A-C.
The target is the same in assay [6]. Briefly: SPR (Biacore), pdVWF immobilized on CM5 chip; mean KD of lots D-F.
Assay [7] has the same target. Briefly: SPR (Biacore), pdVWF immobilized on CM5 chip; mean KD of lots G-I.

Chain of UniProt Q07954 (Q07954 20-4544 limits assumed): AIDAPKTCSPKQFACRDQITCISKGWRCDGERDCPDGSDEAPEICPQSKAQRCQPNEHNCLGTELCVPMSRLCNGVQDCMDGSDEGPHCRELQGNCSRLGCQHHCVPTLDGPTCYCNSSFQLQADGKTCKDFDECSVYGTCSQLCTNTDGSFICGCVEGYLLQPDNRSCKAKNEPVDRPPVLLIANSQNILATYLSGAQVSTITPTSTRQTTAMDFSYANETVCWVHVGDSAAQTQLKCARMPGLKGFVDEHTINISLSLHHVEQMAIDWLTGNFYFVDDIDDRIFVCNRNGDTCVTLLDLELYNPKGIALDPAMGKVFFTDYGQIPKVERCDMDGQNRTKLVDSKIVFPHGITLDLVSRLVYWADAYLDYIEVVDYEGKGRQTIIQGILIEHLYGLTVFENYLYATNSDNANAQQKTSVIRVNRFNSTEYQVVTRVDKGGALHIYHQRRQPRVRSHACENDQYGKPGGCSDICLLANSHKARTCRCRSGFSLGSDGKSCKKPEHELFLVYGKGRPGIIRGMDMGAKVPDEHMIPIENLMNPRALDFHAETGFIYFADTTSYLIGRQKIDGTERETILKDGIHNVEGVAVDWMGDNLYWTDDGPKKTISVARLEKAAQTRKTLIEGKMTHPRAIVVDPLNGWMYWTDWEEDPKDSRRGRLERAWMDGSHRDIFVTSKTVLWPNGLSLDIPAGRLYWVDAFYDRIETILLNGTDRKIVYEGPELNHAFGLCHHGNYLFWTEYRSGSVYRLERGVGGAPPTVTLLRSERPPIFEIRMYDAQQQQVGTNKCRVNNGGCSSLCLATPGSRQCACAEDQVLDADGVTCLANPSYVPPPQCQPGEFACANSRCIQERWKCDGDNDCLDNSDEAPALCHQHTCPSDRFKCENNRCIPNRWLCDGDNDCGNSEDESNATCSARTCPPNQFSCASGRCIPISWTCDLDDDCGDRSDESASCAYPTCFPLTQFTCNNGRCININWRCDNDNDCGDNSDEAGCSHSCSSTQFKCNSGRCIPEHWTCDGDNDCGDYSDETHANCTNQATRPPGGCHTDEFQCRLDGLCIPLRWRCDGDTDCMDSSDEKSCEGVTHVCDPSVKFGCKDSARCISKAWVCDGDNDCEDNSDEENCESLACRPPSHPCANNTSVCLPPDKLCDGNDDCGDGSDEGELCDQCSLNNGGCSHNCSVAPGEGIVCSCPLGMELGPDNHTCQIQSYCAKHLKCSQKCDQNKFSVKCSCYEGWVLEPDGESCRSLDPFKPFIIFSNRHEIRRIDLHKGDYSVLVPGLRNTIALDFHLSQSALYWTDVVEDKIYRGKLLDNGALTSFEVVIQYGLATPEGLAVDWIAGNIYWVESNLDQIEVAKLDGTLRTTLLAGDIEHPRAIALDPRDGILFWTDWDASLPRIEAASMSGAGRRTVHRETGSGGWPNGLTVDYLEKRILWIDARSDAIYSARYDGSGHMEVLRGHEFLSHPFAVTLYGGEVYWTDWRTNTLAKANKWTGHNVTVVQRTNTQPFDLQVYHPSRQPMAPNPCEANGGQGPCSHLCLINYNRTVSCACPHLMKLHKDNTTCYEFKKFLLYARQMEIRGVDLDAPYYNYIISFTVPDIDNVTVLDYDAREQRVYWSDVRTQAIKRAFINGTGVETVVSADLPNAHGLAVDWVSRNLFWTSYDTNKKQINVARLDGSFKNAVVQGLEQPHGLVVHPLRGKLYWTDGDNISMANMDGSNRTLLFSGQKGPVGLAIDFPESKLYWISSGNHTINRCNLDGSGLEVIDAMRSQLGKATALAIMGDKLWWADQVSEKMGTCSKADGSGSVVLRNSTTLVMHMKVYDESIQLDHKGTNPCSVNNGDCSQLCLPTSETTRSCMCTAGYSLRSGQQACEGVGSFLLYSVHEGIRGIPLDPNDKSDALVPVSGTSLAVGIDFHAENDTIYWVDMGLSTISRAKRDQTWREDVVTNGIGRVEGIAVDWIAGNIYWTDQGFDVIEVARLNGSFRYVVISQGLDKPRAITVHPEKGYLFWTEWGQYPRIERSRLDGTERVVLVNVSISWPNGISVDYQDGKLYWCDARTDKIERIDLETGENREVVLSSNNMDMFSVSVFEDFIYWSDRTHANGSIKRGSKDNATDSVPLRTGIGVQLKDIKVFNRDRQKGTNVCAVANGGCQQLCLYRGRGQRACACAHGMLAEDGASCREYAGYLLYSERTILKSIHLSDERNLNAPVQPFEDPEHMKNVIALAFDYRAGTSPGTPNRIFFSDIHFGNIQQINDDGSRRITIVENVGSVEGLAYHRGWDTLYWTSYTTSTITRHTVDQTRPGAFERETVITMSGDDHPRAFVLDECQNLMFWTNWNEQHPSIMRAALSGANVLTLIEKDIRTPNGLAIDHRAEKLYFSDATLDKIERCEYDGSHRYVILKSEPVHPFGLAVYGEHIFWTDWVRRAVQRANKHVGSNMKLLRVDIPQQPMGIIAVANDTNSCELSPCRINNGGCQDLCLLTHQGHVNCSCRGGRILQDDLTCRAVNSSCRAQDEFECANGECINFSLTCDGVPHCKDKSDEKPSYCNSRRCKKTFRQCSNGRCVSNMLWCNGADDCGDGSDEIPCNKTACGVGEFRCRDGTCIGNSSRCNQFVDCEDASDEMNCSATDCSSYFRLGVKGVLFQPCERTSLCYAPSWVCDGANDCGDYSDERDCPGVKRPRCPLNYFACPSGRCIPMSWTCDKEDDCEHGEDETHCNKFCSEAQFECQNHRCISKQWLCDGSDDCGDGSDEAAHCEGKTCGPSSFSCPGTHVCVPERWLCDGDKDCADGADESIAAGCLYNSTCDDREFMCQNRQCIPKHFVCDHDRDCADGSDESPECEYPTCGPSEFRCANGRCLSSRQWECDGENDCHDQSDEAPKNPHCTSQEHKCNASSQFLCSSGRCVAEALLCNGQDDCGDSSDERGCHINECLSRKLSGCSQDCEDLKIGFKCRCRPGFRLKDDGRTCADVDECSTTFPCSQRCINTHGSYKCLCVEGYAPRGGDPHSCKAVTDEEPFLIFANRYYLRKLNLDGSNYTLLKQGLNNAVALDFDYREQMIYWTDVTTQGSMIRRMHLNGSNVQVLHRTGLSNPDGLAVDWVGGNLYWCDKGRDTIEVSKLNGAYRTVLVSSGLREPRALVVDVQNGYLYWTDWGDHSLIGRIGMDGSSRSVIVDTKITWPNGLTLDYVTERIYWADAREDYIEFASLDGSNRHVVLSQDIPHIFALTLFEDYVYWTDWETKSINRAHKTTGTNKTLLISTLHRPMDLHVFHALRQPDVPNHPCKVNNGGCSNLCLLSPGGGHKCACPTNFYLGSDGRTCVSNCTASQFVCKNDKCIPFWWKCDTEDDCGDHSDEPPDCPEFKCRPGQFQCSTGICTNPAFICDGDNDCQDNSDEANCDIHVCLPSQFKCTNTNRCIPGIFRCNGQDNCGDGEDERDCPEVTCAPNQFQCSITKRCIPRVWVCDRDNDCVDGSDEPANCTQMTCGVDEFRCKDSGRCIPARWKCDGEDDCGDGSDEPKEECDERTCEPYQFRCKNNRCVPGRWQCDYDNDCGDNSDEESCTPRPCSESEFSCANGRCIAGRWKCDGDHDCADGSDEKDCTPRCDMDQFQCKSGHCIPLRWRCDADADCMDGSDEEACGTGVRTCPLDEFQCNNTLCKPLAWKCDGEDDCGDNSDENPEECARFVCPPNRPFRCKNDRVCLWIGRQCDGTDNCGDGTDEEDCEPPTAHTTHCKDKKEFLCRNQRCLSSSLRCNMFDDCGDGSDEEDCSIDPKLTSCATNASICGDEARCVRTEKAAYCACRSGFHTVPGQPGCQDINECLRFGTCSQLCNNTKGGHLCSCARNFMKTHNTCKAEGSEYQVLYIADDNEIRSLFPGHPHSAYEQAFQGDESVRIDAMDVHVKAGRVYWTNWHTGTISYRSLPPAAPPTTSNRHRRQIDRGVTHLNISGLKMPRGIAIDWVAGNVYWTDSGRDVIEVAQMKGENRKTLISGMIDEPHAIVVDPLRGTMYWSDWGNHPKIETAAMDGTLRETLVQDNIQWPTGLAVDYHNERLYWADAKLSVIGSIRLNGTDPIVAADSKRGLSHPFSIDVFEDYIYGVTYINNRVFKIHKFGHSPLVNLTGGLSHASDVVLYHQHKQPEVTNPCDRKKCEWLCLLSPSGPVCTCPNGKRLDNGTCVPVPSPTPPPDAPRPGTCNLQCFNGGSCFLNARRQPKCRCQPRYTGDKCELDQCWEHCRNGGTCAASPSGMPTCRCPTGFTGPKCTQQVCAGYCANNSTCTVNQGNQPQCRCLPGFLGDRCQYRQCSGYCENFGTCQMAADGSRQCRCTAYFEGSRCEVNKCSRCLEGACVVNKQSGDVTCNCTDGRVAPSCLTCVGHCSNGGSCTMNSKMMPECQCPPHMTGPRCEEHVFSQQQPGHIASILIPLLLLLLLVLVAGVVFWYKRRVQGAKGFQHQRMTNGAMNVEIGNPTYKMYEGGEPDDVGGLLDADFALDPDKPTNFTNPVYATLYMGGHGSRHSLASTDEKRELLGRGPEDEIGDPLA

Take “rebuffered rFVIII (unmodified recombinant Factor VIII) (from UniProt P00451 20-2351)”: the figures for the dissociation constant Kd in assay [1] and in assay [2] were 22.3 nM and 0.32 nM, respectively.
For the substance “PSA-rFVIII (polysialylated recombinant Factor VIII) (from UniProt P00451 20-2351)”, the Kd in assay [3] is 19 nM; in assay [4], 32 nM; in assay [5] it was 0.28 nM; in assay [6] it was 0.28 nM; in assay [7], 0.31 nM.
